Literature values, collected in patent publication US6823267B2, “Structural prediction of allosterism” (The Johns Hopkins University, priority 2000, dated 2004).

Target: glycerol kinase (Escherichia coli, UniProt P0A6F3)
Conditions: at 25° C.

glycerol kinase, sequence (P0A6F3 whole entry): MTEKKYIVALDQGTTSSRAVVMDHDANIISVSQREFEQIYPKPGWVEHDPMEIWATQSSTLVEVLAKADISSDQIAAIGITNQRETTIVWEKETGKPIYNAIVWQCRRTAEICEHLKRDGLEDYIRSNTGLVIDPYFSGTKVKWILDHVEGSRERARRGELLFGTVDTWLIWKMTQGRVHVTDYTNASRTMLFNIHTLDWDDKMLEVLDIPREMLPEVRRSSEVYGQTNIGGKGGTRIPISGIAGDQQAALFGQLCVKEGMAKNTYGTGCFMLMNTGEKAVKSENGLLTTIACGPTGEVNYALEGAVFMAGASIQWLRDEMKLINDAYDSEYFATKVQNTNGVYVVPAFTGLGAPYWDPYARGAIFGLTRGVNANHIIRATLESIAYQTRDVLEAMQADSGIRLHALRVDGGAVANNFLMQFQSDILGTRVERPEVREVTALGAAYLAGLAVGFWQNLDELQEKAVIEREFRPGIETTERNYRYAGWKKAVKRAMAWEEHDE

B1: IIAGlc: protein that is an allosteric inhibitor of the enzyme glycerol kinase (protein, UniProt P69783 2-169, looked up)
PTS system glucose-specific …: GLFDKLKSLVSDDKKDTGTIEIIAPLSGEIVNIEDVPDVVFAEKIVGDGIAIKPTGNKMVAPVDGTIGKIFETNHAFSIESDSGVELFVHFGIDTVELKGEGFKRIAEEGQRVKVGDTVIEFDLPLLEEKAKSTLTPVVISNMDEIKELIKLSGSVTVGETPVIRIKK
Question: For B1, which “association constant of IIAGlc to glycerol kinase” value is on record?
Answer: ~10^5 M^−1
